± gives the uncertainty stated by the source.
Assay: self-splicing fitness, log relative to wild type (ln ratio); higher = more splicing; Tetrahymena group I intron in knt gene, E. coli kanamycin selection, DiMSum; sequences stand for … in CUCUCU…GGAGGGAAAAGUUAUCAGGCAUGCACCUGGUAGCUAGUCUUUAAACCAAUAGAUUGCAUCGGUUUAAAAGGCAAGACCGUCAAAUUGCGGGAAAGGGGUCAACAGCCGUUCAGUACCAAGUCUCAGGGGAAACUUUGAGAUGGCCUUGCAAAGGGUAUGGUAAUAAGCUGACGGACAUGGUCCUAACCACGCAGCCAAGUCCUAAGUCAACAGAUCUUCUGUUGAUAUGGAUGCAGUUCACAGACUAAAUGUCGGUCGGGGAAGAUGUAUUCUUCUCAUAAGAUAUAGUCGGACCUCUCCUUAAUGGGAGCUAGCGGAUGAAGUGAUGCAACACUGGAGCCGCUGGGAACUAAUUUGUAUGCGAAAGUAUAUUGAUUAGUUUUGGAGUACUCGUGGUCG
Method in brief: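 Colonies from six replicate transformations of E. coli BL21(DE3) were pooled and amplicon-sequenced on an Illumina HiSeq 2500. The library placed an intron with all eight P1ex-region nucleotides randomised inside the knt kanamycin-resistance gene on pET-22b(+), and cells grew overnight at 37°C or 30°C on LB agar with or without 25 μg/mL kanamycin (plus 100 μg/mL carbenicillin, 50 μM IPTG, 0.2% rhamnose). Fitness is the DiMSum error-weighted combination of wild-type-normalised replicate fold changes, kanamycin versus none.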

Sequence	self-splicing fitness (ln) (30 °C)	self-splicing fitness (ln) (37 °C)
GUACAGCAAUAUUACGUGCC	-2.93 ± 0.13	-2.54 ± 0.22
CACGAGCAAUAUUACGAGAU	-4.36 ± 0.32	-3.09 ± 0.26
ACUCAGCAAUAUUACGGCGG	-0.825 ± 0.078	-0.0415 ± 0.095
UCCGAGCAAUAUUACGUGAU	-4.03 ± 0.4	-1.91 ± 0.41
ACGUAGCAAUAUUACGCUAA	-1.84 ± 0.21	-0.48 ± 0.13
CUCGAGCAAUAUUACGAAUA	-3.12 ± 0.3	-2.59 ± 0.28
AGGCAGCAAUAUUACGAUUU	-0.23 ± 0.085	-0.332 ± 0.1
GCAGAGCAAUAUUACGUUGG	-2.91 ± 0.18	-1.09 ± 0.19
UAGUAGCAAUAUUACGUAGG	-3.19 ± 0.47	
AGGUAGCAAUAUUACGCGCU	-1.13 ± 0.017	-0.72 ± 0.036
AAUGAGCAAUAUUACGCGUA	-2.4 ± 0.27	-1.62 ± 0.25
GUACAGCAAUAUUACGGAUU	-2.88 ± 0.11	-0.823 ± 0.084
UUAUAGCAAUAUUACGAGGU		-2.14 ± 0.37
CUGUAGCAAUAUUACGAUAA	-3.19 ± 0.38	-1.72 ± 0.27
CAAAAGCAAUAUUACGUAGA	-1.88 ± 0.078	-1.97 ± 0.12
UUCAAGCAAUAUUACGGGAC	-2.58 ± 0.16	-2.43 ± 0.28
UAAGAGCAAUAUUACGAUCC	-1.81 ± 0.36	
UGCAAGCAAUAUUACGACAG	-0.739 ± 0.066	-0.13 ± 0.092
AUUGAGCAAUAUUACGGUCG	-2.92 ± 0.36	-2.52 ± 0.45
UAUAAGCAAUAUUACGCCAC	-3.21 ± 0.43	-1.21 ± 0.38
UUGAAGCAAUAUUACGCUGU	-1.96 ± 0.14	-1.84 ± 0.16
GGUGAGCAAUAUUACGUAGG	-3.15 ± 0.27	-2.07 ± 0.32
UCCAAGCAAUAUUACGCUAC	-3.8 ± 0.27	-2.48 ± 0.24
ACUGAGCAAUAUUACGACUC	-2.18 ± 0.16	-1.13 ± 0.2
UCCUAGCAAUAUUACGAUUA		-3.41 ± 0.46

Sequence	self-splicing fitness (ln) (30 °C)	self-splicing fitness (ln) (37 °C)
UCCCAGCAAUAUUACGGACA	-1.63 ± 0.092	-0.126 ± 0.081
UUACAGCAAUAUUACGGGCC	-3.28 ± 0.19	-3.55 ± 0.42
CCGGAGCAAUAUUACGUUAG	-1.47 ± 0.078	-0.769 ± 0.11
ACCCAGCAAUAUUACGAUUG	-4.36 ± 0.19	-2.78 ± 0.16
CGCCAGCAAUAUUACGUGUA	-3.04 ± 0.097	-1.04 ± 0.072
CCCUAGCAAUAUUACGUGGC	-3.35 ± 0.18	-2.68 ± 0.16
AUGUAGCAAUAUUACGCGCC	-0.455 ± 0.077	-0.312 ± 0.096
ACCGAGCAAUAUUACGCGUA	-2.38 ± 0.14	-0.999 ± 0.12
CUGUAGCAAUAUUACGAAGG	-1.83 ± 0.21	-2.22 ± 0.3
ACGUAGCAAUAUUACGAGCC	-3.28 ± 0.35	-2.55 ± 0.44
UAGAAGCAAUAUUACGUGGA	-2.1 ± 0.13	-1.92 ± 0.16
GCCUAGCAAUAUUACGCUAU	-0.383 ± 0.11	-0.105 ± 0.17
UCAAAGCAAUAUUACGGGUU	-3.13 ± 0.15	-2.59 ± 0.15
UGGUAGCAAUAUUACGCAUG	-1.33 ± 0.1	0.872 ± 0.14
UUCGAGCAAUAUUACGGAUG	-3.22 ± 0.38	-2.86 ± 0.32
GGUUAGCAAUAUUACGAUCA	-0.0432 ± 0.15	-0.342 ± 0.13
GUGAAGCAAUAUUACGCUAU	-1.95 ± 0.15	-0.0655 ± 0.15
CAAAAGCAAUAUUACGGUCU	-3.38 ± 0.13	-1.1 ± 0.086
GGAAAGCAAUAUUACGCUGA	-2.94 ± 0.22	-1.9 ± 0.16
UCCGAGCAAUAUUACGUAAU	-4.41 ± 0.28	-1.88 ± 0.18
GUUCAGCAAUAUUACGGUGC	-1.34 ± 0.14	-0.357 ± 0.12
AACAAGCAAUAUUACGAGUA	-1.5 ± 0.078	-0.465 ± 0.08
CGAUAGCAAUAUUACGAUUU	-2.52 ± 0.14	-0.871 ± 0.14
GCCGAGCAAUAUUACGUAUC	-2.66 ± 0.16	-1.75 ± 0.13
GACGAGCAAUAUUACGGAGU	-3.71 ± 0.35	-2.49 ± 0.24

Sequence	self-splicing fitness (ln) (30 °C)	self-splicing fitness (ln) (37 °C)
UUGUAGCAAUAUUACGUGCG	-1.77 ± 0.15	0.0928 ± 0.14
ACUUAGCAAUAUUACGCUAA	-2.99 ± 0.39	-3.09 ± 0.29
UCUAAGCAAUAUUACGUGAC	-2.88 ± 0.23	-2.95 ± 0.28
AUGGAGCAAUAUUACGCGCC		-1.2 ± 0.34
UUCAAGCAAUAUUACGGAAC	-3 ± 0.27	
GAUCAGCAAUAUUACGCAAG	-1.99 ± 0.15	-1.34 ± 0.14
CGAUAGCAAUAUUACGACUC	-1.15 ± 0.15	-1.38 ± 0.17
GACAAGCAAUAUUACGAAGA	-2.94 ± 0.17	-1.19 ± 0.13
CUCAAGCAAUAUUACGUACA	-3.5 ± 0.23	-1.83 ± 0.18
ACGUAGCAAUAUUACGGUGG	-5.08 ± 0.28	-2.92 ± 0.16
CAUUAGCAAUAUUACGCAUA	-2.03 ± 0.18	-1.06 ± 0.15
GUAGAGCAAUAUUACGUGUC	-1.68 ± 0.094	-0.37 ± 0.13
UCGGAGCAAUAUUACGCUGA	-2.56 ± 0.29	-2.16 ± 0.2
AUGUAGCAAUAUUACGUAGG	-3.93 ± 0.19	-1.43 ± 0.096
GCGUAGCAAUAUUACGAAAC	-0.751 ± 0.25	-0.283 ± 0.4
AACAAGCAAUAUUACGAGGU	-4.04 ± 0.21	-3.54 ± 0.17
AACAAGCAAUAUUACGCAGA	-2.2 ± 0.11	-0.924 ± 0.095
AAGUAGCAAUAUUACGGUUA	-0.841 ± 0.087	-0.334 ± 0.085
UCAUAGCAAUAUUACGUCGG	-1.34 ± 0.12	-0.0833 ± 0.11
UAUUAGCAAUAUUACGCGAU		-2.15 ± 0.38
GAUCAGCAAUAUUACGAGGA	-1.43 ± 0.13	-1.85 ± 0.13
GAGAAGCAAUAUUACGUCGG	-3.32 ± 0.19	-2.35 ± 0.24
UGCCAGCAAUAUUACGUUUC	-4.47 ± 0.28	-1.17 ± 0.16
GAUGAGCAAUAUUACGUUGC	-4.01 ± 0.39	-3 ± 0.35
GGUAAGCAAUAUUACGCGCA	-0.159 ± 0.074	-0.401 ± 0.085

Sequence	self-splicing fitness (ln) (30 °C)	self-splicing fitness (ln) (37 °C)
CUCCAGCAAUAUUACGCGGU	-4.01 ± 0.23	-3.96 ± 0.25
GACUAGCAAUAUUACGUAAU	-1.31 ± 0.077	-0.482 ± 0.092
UCAAAGCAAUAUUACGAAAG	-3.84 ± 0.31	-1.43 ± 0.18
ACGUAGCAAUAUUACGCCUG	-1.29 ± 0.077	0.00322 ± 0.11
ACUAAGCAAUAUUACGUACG	-1.76 ± 0.12	-0.814 ± 0.16
GAAGAGCAAUAUUACGAGUC	-4.22 ± 0.46	-2.8 ± 0.47
ACGUAGCAAUAUUACGUCCU	-1.99 ± 0.13	-0.452 ± 0.13
GUUAAGCAAUAUUACGCACG	-0.281 ± 0.18	-0.714 ± 0.18
AACUAGCAAUAUUACGAUCU	-0.146 ± 0.082	0.426 ± 0.098
AGAGAGCAAUAUUACGGAAG	-3.74 ± 0.33	-1.32 ± 0.22
CGGAAGCAAUAUUACGCUAC	-2.38 ± 0.24	-3.01 ± 0.47
GGGAAGCAAUAUUACGUUAU	-2.98 ± 0.26	-1.33 ± 0.18
GUGCAGCAAUAUUACGUAAC	-1.63 ± 0.15	-0.239 ± 0.14
GCAGAGCAAUAUUACGGAUU	-3.62 ± 0.3	
UUUGAGCAAUAUUACGUGUA	-3.76 ± 0.35	-2.78 ± 0.28
GAAAAGCAAUAUUACGCCAU	-2.84 ± 0.15	-1.57 ± 0.15
GUUUAGCAAUAUUACGCCUU	-1.21 ± 0.17	-0.678 ± 0.21
GAUCAGCAAUAUUACGCGCA	0.225 ± 0.092	-0.0411 ± 0.1
AUGAAGCAAUAUUACGCGGG	-1.39 ± 0.11	-0.785 ± 0.14
AAUCAGCAAUAUUACGUAAU	-0.172 ± 0.059	0.204 ± 0.075
GCAAAGCAAUAUUACGCGAG	-2.18 ± 0.28	-1.11 ± 0.18
UUAUAGCAAUAUUACGUAGG	-1.75 ± 0.14	-0.198 ± 0.17
